Data from PMC3520970 (PLoS ONE, 2012).

T1: His-Myc-tagged MOD (maize, UniProt P25891 17-286, Δ163–164 | Δ167–189, labelled with the crosslinker NHS-SS-Diazirine (SDAD))
T1 construct: source: E. coli BL21(DE3)pLysS, purified (HisTrap); not shown: Myc, C-terminal, kept
T1 sequence: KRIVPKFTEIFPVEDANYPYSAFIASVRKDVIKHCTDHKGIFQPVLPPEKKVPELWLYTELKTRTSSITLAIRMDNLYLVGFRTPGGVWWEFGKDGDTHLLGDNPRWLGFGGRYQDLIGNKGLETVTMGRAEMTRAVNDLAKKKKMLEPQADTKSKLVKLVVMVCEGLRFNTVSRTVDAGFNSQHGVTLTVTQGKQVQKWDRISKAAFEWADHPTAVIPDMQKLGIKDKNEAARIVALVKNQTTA

B1: P2 on rat liver ribosome (natural protein, rat (endogenous in rat liver ribosome), UniProt P02401 1-115, looked up)
chain: MRYVASYLLAALGGNSNPSAKDIKKILDSVGIEADDERLNKVISELNGKNIEDVIAQGVGKLASVPAGGAVAVSAAPGSAAPAAGSAPAAAEEKKDEKKEESEESDDDMGFGLFD
notes: also called P-protein P2

Experiments:
[1] = target: Ribosomal protein P2 (UniProt P05387)
[2] = target: Ribosomal protein P2 (UniProt P05387); assay: SPR; BIAcore 3000; P2 amine-coupled to CM5 chip (1300 RU); RIPs injected at 30 µl/min in 20 mM Tris, 30 mM NaCl, 0.005% Tween 20, pH 7.4; KD from RU at equilibrium
[3] = target: P2 on rat liver ribosome (rat (endogenous in rat liver ribosome)) (UniProt P02401); conditions: scale: arbitrary
[4] = target: T1, His-Myc-tagged MOD; assay: cross-linking; SDAD-labelled Myc-MOD (90 µM) with rat liver ribosome (0.8 µM) in PBS, room temperature 30 minutes, UV 365 nm for an hour; western blot with anti-Myc and anti-P; conditions: both partners purified
[5] = target: B1; assay: cell-based or functional assay
[6] = target: Ribosomal protein P2 (UniProt P05387 1-115); assay: cell-based or functional assay

| Molecule | N-glycosidase activity on rat liver ribosome, folds increased to untreated [5] | relative N-glycosidase activity on rat liver ribosome (5 nM RIP, qPCR) [5] | further results |
| --- | --- | --- | --- |
| Trichosanthin (enzyme) |  |  | cytotoxicity to 293T cells (MTT, 72 hours), EC50 [1]: 0.63 µM; Kd [2]: 612 µM; relative N-glycosidase activity on rat liver ribosome (5 nM RIP, qPCR) [3]: 2610 |
| B1 |  |  | binding result [4]: binds |
| Maize [Δ1–16, Δ163–164, Δ167–189, Δ287–300]-Pro-RIP (enzyme) KRIVPKFTEIFPVEDANYPYSAFIASVRKDVIKHCTDHKGIFQPVLPPEKKVPELWLYTELKTRTSSITLAIRMDNLYLVGFRTPGGVWWEFGKDGDTHLLGDNPRWLGFGGRYQDLIGNKGLETVTMGRAEMTRAVNDLAKKKKMLEPQADTKSKLVKLVVMVCEGLRFNTVSRTVDAGFNSQHGVTLTVTQGKQVQKWDRISKAAFEWADHPTAVIPDMQKLGIKDKNEAARIVALVKNQTTA | 14.3 fold | 54.3 arbitrary (ratio multiplied by an arbitrary factor) | cytotoxicity to 293T cells (MTT, 72 hours), IC50 (also called EC50) [6]: 7.88 µM |
| MOD [K158A-K161A] (enzyme) KRIVPKFTEIFPVEDANYPYSAFIASVRKDVIKHCTDHKGIFQPVLPPEKKVPELWLYTELKTRTSSITLAIRMDNLYLVGFRTPGGVWWEFGKDGDTHLLGDNPRWLGFGGRYQDLIGNKGLETVTMGRAEMTRAVNDLAAAAAMLEPQADTKSKLVKLVVMVCEGLRFNTVSRTVDAGFNSQHGVTLTVTQGKQVQKWDRISKAAFEWADHPTAVIPDMQKLGIKDKNEAARIVALVKNQTTA | 0.85 fold | 3.24 arbitrary (ratio multiplied by an arbitrary factor) |  |
| Maize [Δ1–16, Δ287–300]-Pro-RIP (enzyme) KRIVPKFTEIFPVEDANYPYSAFIASVRKDVIKHCTDHKGIFQPVLPPEKKVPELWLYTELKTRTSSITLAIRMDNLYLVGFRTPGGVWWEFGKDGDTHLLGDNPRWLGFGGRYQDLIGNKGLETVTMGRAEMTRAVNDLAKKKKMATLEEEEVQMQMQMPEAADLAAAAAADPQADTKSKLVKLVVMVCEGLRFNTVSRTVDAGFNSQHGVTLTVTQGKQVQKWDRISKAAFEWADHPTAVIPDMQKLGIKDKNEAARIVALVKNQTTA | 1.59 fold | 6.06 arbitrary (ratio multiplied by an arbitrary factor) |  |
